The target of the test is Syngnathus scovelli chapparvovirus (SsChPV) VP, capsid protein (Syngnathus scovelli chapparvovirus). Kind of test: cryo-EM structure.

For the substance “Syngnathus scovelli chapparvovirus (SsChPV) VP, capsid protein (natural protein)”, the stoichiometry N (commonly a count of units in the complex or per binding partner) is 60.

For the origin of these results see article PMC12115719.
